± gives the standard deviation of the averaged measurements.
Assay: total protein half-life in vivo (active degradation + dilution); higher = more stable protein
[1] = E. coli NCM3722 delta-clpP delta-lon delta-hslV, growth: N-lim chemostat, doubling time 6 h
[2] = E. coli NCM3722 delta-clpP, growth: N-lim chemostat, doubling time 6 h
[3] = E. coli NCM3722 delta-hslV, growth: N-lim chemostat, doubling time 6 h
[4] = E. coli NCM3722 delta-lon, growth: N-lim chemostat, doubling time 6 h
[5] = E. coli NCM3722 delta-smpB, growth: N-lim chemostat, doubling time 6 h
[6] = wild type E. coli NCM3722, growth: C-lim chemostat, doubling time 3 h
[7] = wild type E. coli NCM3722, growth: C-lim chemostat, doubling time 6 h
[8] = wild type E. coli NCM3722, growth: C-lim chemostat, doubling time 12 h
[9] = wild type E. coli NCM3722, growth: N-lim chemostat, doubling time 6 h
[10] = wild type E. coli NCM3722, growth: N-lim chemostat, doubling time 12 h
[11] = wild type E. coli NCM3722, growth: P-lim chemostat, doubling time 6 h
[12] = wild type E. coli NCM3722, growth: P-lim chemostat, doubling time 12 h

Sequence | total protein half-life in vivo [1] [h] | total protein half-life in vivo [2] [h] | total protein half-life in vivo [3] [h] | total protein half-life in vivo [4] [h] | total protein half-life in vivo [5] [h] | total protein half-life in vivo [6] [h] | total protein half-life in vivo [7] [h] | total protein half-life in vivo [8] [h] | total protein half-life in vivo [9] [h] | total protein half-life in vivo [10] [h] | total protein half-life in vivo [11] [h] | total protein half-life in vivo [12] [h]
MPWIQLKLNTTGANAEDLSDALMEAGAVSITFQDTHDTPVFEPLPGETRLWGDTDVIGLFDAETDMNDVVAILENHPLLGAGFAHKIEQLEDKDWEREWMDNFHPMRFGERLWICPSWRDVPDENAVNVMLDPGLAFGTGTHPTTSLCLQWLDSLDLTGKTVIDFGCGSGILAIAALKLGAAKAIGIDIDPQAIQASRDNAERNGVSDRLELYLPKDQPEEMKADVVVANILAGPLRELAPLISVLPVSGGLLGLSGILASQAESVCEAYADSFALDPVVEKEEWCRITGRKN [P0A8T1] | 5.8 ± 2.4 | 4.39 ± 0.31 | 5.13 ± 1.4 | 4.36 ± 0.61 | 3.91 ± 0.063 | 3.16 ± 0.55 | 4.89 ± 0.5 | 9.36 ± 0.56 | 4.39 ± 0.22 | 6.89 ± 0.88 | 5.37 ± 0.1 | 10.86 ± 0.1
MPYKTKSDLPESVKHVLPSHAQDIYKEAFNSAWDQYKDKEDRRDDASREETAHKVAWAAVKHEYAKGDDDKWHKKS [P0AE63] | 6.81 ± 0.52 | 4.36 ± 0.59 |  | 5.1 ± 0.19 | 5.01 ± 2.3 |  | 5.53 | 6.09 | 3.3 ± 0.35 | 6.77 ± 0.7 | 4.41 | 7.39 ± 1.7
MQASQFSAQVLDWYDKYGRKTLPWQIDKTPYKVWLSEVMLQQTQVATVIPYFERFMARFPTVTDLANAPLDEVLHLWTGLGYYARARNLHKAAQQVATLHGGKFPETFEEVAALPGVGRSTAGAILSLSLGKHFPILDGNVKRVLARCYAVSGWPGKKEVENKLWSLSEQVTPAVGVERFNQAMMDLGAMICTRSKPKCSLCPLQNGCIAAANNSWALYPGKKPKQTLPERTGYFLLLQHEDEVLLAQRPPSGLWGGLYCFPQFADEESLRQWLAQRQIAADNLTQLTAFRHTFSHFHLDIVPMWLPVSSFTGCMDEGNALWYNLAQPPSVGLAAPVERLLQQLRTGAPV |  | 5.73 ± 0.018 | 4.02 ± 0.7 | 3.65 ± 0.12 | 3.52 ± 0.35 | 3.86 | 4.84 ± 0.14 | 7.51 ± 0.26 | 4.8 ± 1.8 | 6.05 | 4.89 ± 0.49 | 8.5 ± 0.85
MQCALYDAGRCRSCQWIMQPIPEQLSAKTADLKNLLADFPVEEWCAPVSGPEQGFRNKAKMVVSGSVEKPLLGMLHRDGTPEDLCDCPLYPASFAPVFAALKPFIARAGLTPYNVARKRGELKYILLTESQSDGGMMLRFVLRSDTKLAQLRKALPWLHEQLPQLKVITVNIQPVHMAIMEGETEIYLTEQQALAERFNDVPLWIRPQSFFQTNPAVASQLYATARDWVRQLPVKHMWDLFCGVGGFGLHCATPDMQLTGIEIASEAIACAKQSAAELGLTRLQFQALDSTQFATAQGDVPELVLVNPPRRGIGKPLCDYLSTMAPRFIIYSSCNAQTMAKDIRELPGFRIERVQLFDMFPHTAHYEVLTLLVKQ | 5.35 ± 0.065 | 3.16 | 4.89 ± 0.31 | 5.02 ± 0.69 | 4.32 ± 0.3 | 3.6 | 5.35 ± 0.8 | > 16 | 5.51 | 10.8 ± 1.5 | 5.7 ± 0.55 | 11.9 ± 1.2
MQDEYYMARALKLAQRGRFTTHPNPNVGCVIVKDGEIVGEGYHQRAGEPHAEVHALRMAGEKAKGATAYVTLEPCSHHGRTPPCCDALIAAGVARVVASMQDPNPQVAGRGLYRLQQAGIDVSHGLMMSEAEQLNKGFLKRMRTGFPYIQLKLGASLDGRTAMASGESQWITSPQARRDVQLLRAQSHAILTSSATVLADDPALTVRWSELDEQTQALYPQQNLRQPIRIVIDSQNRVTPVHRIVQQPGETWFARTQEDSREWPETVRTLLIPEHKGHLDLVVLMMQLGKQQINSIWVEAGPTLAGALLQAGLVDELIVYIAPKLLGSDARGLCTLPGLEKLADAPQFKFKEIRHVGPDVCLHLVGA | 5.45 ± 0.12 | 4.76 ± 0.62 | 5.07 ± 0.25 | 5.1 ± 0.31 | 4.57 ± 0.21 | 2.9 ± 0.13 | 6.76 ± 0.081 | 10.1 ± 0.38 | 4.98 ± 0.35 | 8.77 ± 0.11 | 5.904 ± 0.027 | 11.7 ± 0.15
MQDKDFFSWRRTMLLRFQRMETAEEVYHEIELQAQQLEYDYYSLCVRHPVPFTRPKVAFYTNYPEAWVSYYQAKNFLAIDPVLNPENFSQGHLMWNDDLFSEAQPLWEAARAHGLRRGVTQYLMLPNRALGFLSFSRCSAREIPILSDELQLKMQLLVRESLMALMRLNDEIVMTPEMNFSKREKEILRWTAEGKTSAEIAMILSISENTVNFHQKNMQKKINAPNKTQVACYAAATGLI | 4.97 ± 0.28 |  |  |  |  |  |  |  |  |  |  | 

Source: the supplement of paper PMC11246515
